Measured values from US20240158477A1 (BIODURO JIANGSU, published 2024).

Tests used:
Assay in all cases: cell-based or functional assay
[1] = molecular target: SARS-CoV-2 S protein of variant B1.1.7
[2] = molecular target: SARS-CoV-2 S protein of variant B.1.351
[3] = molecular target: SARS-CoV-2 S protein of variant P.1
[4] = molecular target: SARS-CoV-2 S protein of variant B.1.525

B1: Fc tagged nanobody VHH60 (Fc fusion)
chain: EVQLVESGGGLVQPGGSLRLSCAASGRTFRVNLMGWFRQAPGKGRELVASINGFDDITYYPDSVEGRFTISRDNAKRMVYLQMNSLRAEDTAVYYCAAYDSDYDGRLFNYWGQGTQVTVSSGSGGGGSGGGGS
Q: For B1, which “IC50, pseudoviral entry assay (CaCO2 cells)” value (from here on “IC50, pseudoviral entry assay”) [1] is on record?
A: 31.8 nM

Q: And the “IC50, pseudoviral entry assay” value [2]?
A: 18.3 nM

Q: And the “IC50, pseudoviral entry assay” value [3]?
A: 16.3 nM

Q: And the “IC50, pseudoviral entry assay” value [4]?
A: 15 nM
